assay: Effect of single mutations of GmSHC on activity (site saturation mutagenesis / summary of variants); assay type: biochemical, Gluconobacter morbifer; conditions: single position in GmSHC, SEQ ID NO: 2 numbering
Text: Three different approaches were taken to generate SHC variants: rational mutagenesis (site-directed mutagenesis), semi-rational mutagenesis (via site-saturation library), and random mutagenesis (error prone PCR). Variants were expressed in a heterologous system and screened by GC.
To improve the conversion of HFA to sclareolide, GmSHC was mutated at one or more of the residues at position 45, 54, 178, 184, 222, 278, 284, 326, 348, 574 and 683 of SEQ ID NO: 2. Silent mutations at positions 249, 348, and 574 identified in an error prone library, were also introduced in the GmSHC of SEQ ID NO: 2.

Molecule | effect of mutation on activity
M184T: GmSHC mutant M184T from site saturation mutagenesis (protein, Gluconobacter morbifer, GmSHC mutant M184T from site saturation mutagenesis) MSPADISTKSSSFQRLDNMLPEAVSSACDWLIDQQKPDGHWVGPVESNACMEAQWCLALWFLGQEDHPLRPRLAQALLEMQREDGSWGIYVGADHGDINTTVEAYAALRSMGYAADMPIMAKSAAWIQQKGGLRNVRVFTRYWLALIGEWPWDKTPNLPPEIIWLPDNFIFSIYNFAQWARATTMPLTILSARRPSRPLLPENRLDGLFPEGRENFDYELPVKGEEDLWGRFFRAADKGLHSLQSFPVRRFVPREAAIRHVIEWIIRHQDADGGWGGIQPPWIYGLMALSVEGYPLHHPVLAKAMDALNDPGWRRDKGDASWIQATNSPVWDTMLAVLALHDAGAEDRYSPQMDKAIGWLLDRQVRVKGDWSIKLPDTEPGGWAFEYANDKYPDTDDTAVALIALAGCRHRPEWRERDIEGAISRGVNWLLAMQSSSGGWGAFDKDNNRSILTKIPFCDFGEALDPPSVDVTAHVLEAFGLLGISRNHPSVQKALAYIRSEQERNGAWFGRWGVNYVYGTGAVLPALAAIGEDMTQPYIVRACDWLMSVQQENGGWGESCASYMDINAVGHGVATASQTAWALIGLLAAKRPKDREAIARGCQFLIERQEDGSWTEEEYTGTGFPGYGVGQAIKLDDPSLPDRLLQGAELSRAFMLRYDLYRQYFPVMALSRARRMMKEDASAAA | increase in activity
A683E: GmSHC mutation A683E in the C-terminal domain (protein, Gluconobacter morbifer, GmSHC mutation A683E in the C-terminal domain) MSPADISTKSSSFQRLDNMLPEAVSSACDWLIDQQKPDGHWVGPVESNACMEAQWCLALWFLGQEDHPLRPRLAQALLEMQREDGSWGIYVGADHGDINTTVEAYAALRSMGYAADMPIMAKSAAWIQQKGGLRNVRVFTRYWLALIGEWPWDKTPNLPPEIIWLPDNFIFSIYNFAQWARATMMPLTILSARRPSRPLLPENRLDGLFPEGRENFDYELPVKGEEDLWGRFFRAADKGLHSLQSFPVRRFVPREAAIRHVIEWIIRHQDADGGWGGIQPPWIYGLMALSVEGYPLHHPVLAKAMDALNDPGWRRDKGDASWIQATNSPVWDTMLAVLALHDAGAEDRYSPQMDKAIGWLLDRQVRVKGDWSIKLPDTEPGGWAFEYANDKYPDTDDTAVALIALAGCRHRPEWRERDIEGAISRGVNWLLAMQSSSGGWGAFDKDNNRSILTKIPFCDFGEALDPPSVDVTAHVLEAFGLLGISRNHPSVQKALAYIRSEQERNGAWFGRWGVNYVYGTGAVLPALAAIGEDMTQPYIVRACDWLMSVQQENGGWGESCASYMDINAVGHGVATASQTAWALIGLLAAKRPKDREAIARGCQFLIERQEDGSWTEEEYTGTGFPGYGVGQAIKLDDPSLPDRLLQGAELSRAFMLRYDLYRQYFPVMALSRARRMMKEDASEAA | positive effect on activity
Y284W: GmSHC variant Y284W from site saturation mutagenesis (protein) MSPADISTKSSSFQRLDNMLPEAVSSACDWLIDQQKPDGHWVGPVESNACMEAQWCLALWFLGQEDHPLRPRLAQALLEMQREDGSWGIYVGADHGDINTTVEAYAALRSMGYAADMPIMAKSAAWIQQKGGLRNVRVFTRYWLALIGEWPWDKTPNLPPEIIWLPDNFIFSIYNFAQWARATMMPLTILSARRPSRPLLPENRLDGLFPEGRENFDYELPVKGEEDLWGRFFRAADKGLHSLQSFPVRRFVPREAAIRHVIEWIIRHQDADGGWGGIQPPWIWGLMALSVEGYPLHHPVLAKAMDALNDPGWRRDKGDASWIQATNSPVWDTMLAVLALHDAGAEDRYSPQMDKAIGWLLDRQVRVKGDWSIKLPDTEPGGWAFEYANDKYPDTDDTAVALIALAGCRHRPEWRERDIEGAISRGVNWLLAMQSSSGGWGAFDKDNNRSILTKIPFCDFGEALDPPSVDVTAHVLEAFGLLGISRNHPSVQKALAYIRSEQERNGAWFGRWGVNYVYGTGAVLPALAAIGEDMTQPYIVRACDWLMSVQQENGGWGESCASYMDINAVGHGVATASQTAWALIGLLAAKRPKDREAIARGCQFLIERQEDGSWTEEEYTGTGFPGYGVGQAIKLDDPSLPDRLLQGAELSRAFMLRYDLYRQYFPVMALSRARRMMKEDASAAA | increases activity
